Legend:
Conditions in all cases: remark: other sources report otherwise
[1] = biological target: T1, human wild type calcium and integrin binding protein 2 (CIB2) (human), O75838; test: native gel or EMSA; Ferguson plot: non-denaturing continuous gels at 10, 12, 15% acrylamide, BSA as standard; 20 μM CIB2 with EGTA, Mg2+ or Ca2+ + Mg2+, 1 mM DTT, room temperature
T1 chain: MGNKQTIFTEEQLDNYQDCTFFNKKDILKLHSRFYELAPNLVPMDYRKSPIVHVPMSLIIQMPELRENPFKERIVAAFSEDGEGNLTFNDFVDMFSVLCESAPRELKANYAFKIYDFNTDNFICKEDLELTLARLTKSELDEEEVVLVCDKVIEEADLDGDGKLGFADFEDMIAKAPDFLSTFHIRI

[2] = biological target: T1, human wild type calcium and integrin …; test: dynamic light scattering; Zetasizer Nano-S, 37°C; samples immediately after SEC in 20 mM Tris-HCl pH 7.5, 150 mM KCl, 1 mM DTT with 3 mM EGTA or 2 mM EGTA + 3 mM Mg2+ or 3 mM Mg2+ + 2 mM Ca2+
[3] = biological target: T1, human wild type calcium and integrin …; test: SEC; analytical SEC, Superose 12 10/300GL; 20 mM Tris pH 7.5, 150 mM KCl, 1 mM DTT with 3 mM EGTA or 2 mM EGTA + 3 mM Mg2+ or 3 mM Mg2+ + 2 mM Ca2+; WT 100 μM, E64D 70 μM; MW from a calibration plot

stoichiometry N [1]: 2
stoichiometry N [2]: 2
stoichiometry N [3]: 2
B1: human wild type calcium and integrin binding protein 2 (CIB2), O75838-1 1-187 (natural protein)
chain: T1 chain
